Biological target: the molecule itself
Assay: SEC; Superdex 200 column; Spo0A after phosphorylation with phosphoramidate; buffer not stated

B1: Spo0A∼P (phosphorylated form of the response-regulator protein Spo0A) (natural protein, Bacillus subtilis, UniProt P06534 1-267, looked up)
chain: MEKIKVCVADDNRELVSLLSEYIEGQEDMEVIGVAYNGQECLSLFKEKDPDVLVLDIIMPHLDGLAVLERLRESDLKKQPNVIMLTAFGQEDVTKKAVDLGASYFILKPFDMENLVGHIRQVSGNASSVTHRAPSSQSSIIRSSQPEPKKKNLDASITSIIHEIGVPAHIKGYLYLREAISMVYNDIELLGSITKVLYPDIAKKFNTTASRVERAIRHAIEVAWSRGNIDSISSLFGYTVSMTKAKPTNSEFIAMVADKLRLEHKAS
modifications: phosphorylated with phosphoramidate (residue not given; fraction phosphorylated uncertain)
notes: Spo0A, response regulator of Bacillus subtilis, full length, phosphorylated in vitro; also called OA∼P; source: purified following a published protocol [41] as modified [42]; phosphorylated with non-radioactive phosphoramidate
B1 was tested, and the “stoichiometry N” value was 2.

— publication PMC3297582, “Spo0A∼P Imposes a Temporal Gate for the Bimodal Expression of Competence in Bacillus subtilis” (PLoS Genetics, 2012)
